Data as given in patent publication US20110123523A1 (MERRIMACK PHARMACEUTICALS, published 2011).
Where two headings read alike, the source gives them in different places.

Assays:
[1] = target: T1, ErbB3 as used in the surface plasmon resonance (Flexchip) and KinExA assays (human, UniProt P21860 20-643, limits assumed); assay: surface plasmon resonance (Flexchip assay); Flexchip SPR
[2] = target: T2, ErbB3 receptor, wild type full length, on cells (MALME-3M, ADRr/AdrR, CHO K1 transfectants) (human, UniProt P21860 20-1342); assay: cell binding assay, flow cytometry on MALME-3M cells, one-site binding fit
T2 construct: whole, on cells; also called HER3

[3] = target: T2, ErbB3 receptor, wild type full length, …; assay: flow cytometry on MALME-3M cells, Alexa 647 goat anti-human IgG, one-site binding fit
[4] = target: T1, ErbB3 as used in the surface plasmon …; assay: Kinetic Exclusion Assay (KinExA); KinExA, not Flexchip SPR
[5] = target: T1, ErbB3 as used in the surface plasmon …; assay: surface plasmon resonance (Flexchip assay); Flexchip SPR, not KinExA
[6] = target: T1, ErbB3 as used in the surface plasmon …; assay: Kinetic Exclusion Assay (KinExA); KinExA
[7] = target: T3, full-length ErbB3 D93A mutant on CHO K1 cells (human, UniProt P21860 20-1342); assay: FACS on CHO K1 cells stably expressing full-length ErbB3 D93A; Ab #6 directly labelled with Alexa 488 (FL1)
T3 construct: whole, on cells

[8] = target: T4, full-length ErbB3 L102A mutant on CHO K1 cells (human, UniProt P21860 20-1342); assay: FACS on CHO K1 cells stably expressing full-length ErbB3 L102A; Ab #6 directly labelled with Alexa 488 (FL1)
T4 construct: whole, on cells; Numbering as for m15

[9] = target: T5, full-length ErbB3 Y104A mutant on CHO K1 cells (human, UniProt P21860 20-1342); assay: FACS on CHO K1 cells stably expressing full-length ErbB3 Y104A; Ab #6 directly labelled with Alexa 488 (FL1)
T5 construct: whole, on cells; Numbering as for m15

[10] = target: T2, ErbB3 receptor, wild type full length, …; assay: cell-based or functional assay
[11] = target: T2, ErbB3 receptor, wild type full length, …; assay: flow cytometry on MALME-3M cells, Alexa 647 goat anti-human IgG, one-site binding fit; remark: listed apart in the source
TGF-α (control in ELISA) = target: T6, TGF-α (control in ELISA) (UniProt P01135 40-89); assay: ELISA on plate-coated protein, HRP anti-human IgG, chemiluminescence
T6 construct: also called transforming growth factor-α

[12] = target: recombinant human EGFR (coated on ELISA plate) (human, UniProt P00533 25-645, limits assumed); assay: as above
[13] = target: bovine serum albumin (BSA), unrelated protein control (bovine, UniProt P02769 25-607); assay: as above
Chain of bovine serum albumin (BSA), unrelated protein control (P02769 25-607 limits assumed): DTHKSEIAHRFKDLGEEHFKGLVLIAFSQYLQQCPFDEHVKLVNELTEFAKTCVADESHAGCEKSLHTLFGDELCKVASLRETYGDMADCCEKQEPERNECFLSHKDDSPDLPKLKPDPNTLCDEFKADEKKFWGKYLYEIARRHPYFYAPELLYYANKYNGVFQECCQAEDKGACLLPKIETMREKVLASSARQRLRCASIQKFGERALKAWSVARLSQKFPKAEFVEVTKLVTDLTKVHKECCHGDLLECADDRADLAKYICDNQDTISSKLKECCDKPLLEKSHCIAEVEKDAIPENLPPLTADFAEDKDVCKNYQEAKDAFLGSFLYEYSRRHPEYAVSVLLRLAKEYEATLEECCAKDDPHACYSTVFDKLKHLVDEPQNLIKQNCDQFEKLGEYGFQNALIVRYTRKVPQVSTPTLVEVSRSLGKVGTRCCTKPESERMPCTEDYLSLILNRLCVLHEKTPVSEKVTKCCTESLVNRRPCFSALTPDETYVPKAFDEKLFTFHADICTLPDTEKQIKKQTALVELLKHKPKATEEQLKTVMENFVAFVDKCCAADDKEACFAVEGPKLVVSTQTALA

[14] = target: T7, EGFR (ErbB1) on ADRr cells (human, UniProt P00533 25-1210); assay: flow cytometry on ADRr cells, biotinylated BTC + streptavidin-PE; BTC concentration not printed on the sheet (legend paragraph 39 names 10 nM)
T7 construct: whole, on cells

[15] = target: T2, ErbB3 receptor, wild type full length, …; assay: flow cytometry on MALME-3M cells (ErbB1 negative, ErbB3 positive), biotinylated BTC + streptavidin-PE
[16] = target: T2, ErbB3 receptor, wild type full length, …; assay: flow cytometry, biotinylated heregulin EGF + streptavidin-PE; cells MALME3 according to the sheet's title and legend paragraph 42 (Example 10 names ADRr cells)
[17] = target: T2, ErbB3 receptor, wild type full length, …; assay: flow cytometry on MALME-3M cells; Fab at about 500 nM; goat anti-human Alexa 647 secondary antibody

B1: Antibody #3 (Ab #3), human anti-ErbB3 antibody (antibody, V domains shown)
VH: EVQLLESGGGLVQPGGSLRLSCAASGFTFSAYNMRWVRQAPGKGLEWVSVIYPSGGATRYADSVKGRFTISRDNSKNTLYLQMNSLRAEDTAVYYCARGYYYYGMDVWGQGTLVTVSS
VL: QSVLTQPPSASGTPGQRVTISCSGSDSNIGRNYIYWYQQFPGTAPKLLIYRNNQRPSGVPDRISGSKSGTSASLAISGLRSEDEAEYHCGTWDDSLSGPVFGGGTKLTVL
For B1, the Kd [1] was ~8 nM, the Kd [2] was ~1.3 nM and the “EC50 (read off the curve)” value [3] was ~8 nM.

B2: Antibody #6 (Ab #6), human anti-ErbB3 antibody (antibody, V domains shown)
VH: EVQLLESGGGLVQPGGSLRLSCAASGFTFSHYVMAWVRQAPGKGLEWVSSISSSGGWTLYADSVKGRFTISRDNSKNTLYLQMNSLRAEDTAVYYCTRGLKMATIFDYWGQGTLVTVSS
VL: QSALTQPASVSGSPGQSITISCTGTSSDVGSYNVVSWYQQHPGKAPKLIIYEVSQRPSGVSNRFSGSKSGNTASLTISGLQTEDEADYYCCSYAGSSIFVIFGGGTKVTVL
notes: also called antibody number 6; MM121
B2 showed a Kd [4] of 0.769 nM, a Kd [5] of ~4 nM and a koff [6] of 0.00011 s⁻¹. The kon [6] was 143000 M⁻¹ s⁻¹, the Kd [2] was ~4 nM and the binding result [7] was “no binding”. For the same binder, the binding result [8] was “no binding”, the binding result [9] was “no binding” and the “IC50 of inhibition of BTC-induced ErbB3 phosphorylation (ELISA, ADRr cells)” value [10] was 5.9 nM. For the same binder, the “IC50 of inhibition of HRG1-beta-induced ErbB3 phosphorylation (ELISA, ADRr cells)” value [10] was 2.4 nM and the “EC50 (read off the curve)” value [11] was 1 to 2 nM.

B3: Ab #6, IgG2 isotype (antibody, V domains shown)
VH: EVQLLESGGGLVQPGGSLRLSCAASGFTFSHYVMAWVRQAPGKGLEWVSSISSSGGWTLYADSVKGRFTISRDNSKNTLYLQMNSLRAEDTAVYYCTRGLKMATIFDYWGQGTLVTVSS
VL: QSALTQPASVSGSPGQSITISCTGTSSDVGSYNVVSWYQQHPGKAPKLIIYEVSQRPSGVSNRFSGSKSGNTASLTISGLQTEDEADYYCCSYAGSSIFVIFGGGTKVTVL
notes: Human IgG2; also called IgG2 isotype of Ab #6
B3: no binding (tested: 1000 nM) (TGF-α (control in ELISA)); no binding (tested: 1000 nM) [12]; no binding (tested: 1000 nM) [13].

B4: betacellulin (BTC) (ligand, UniProt P35070 32-111, looked up)
chain: DGNSTRSPETNGLLCGDPEENCAATTTQSKRKGHFSRCPKQYKHYCIKGRCRFVVAEQTPSCVCDEGYIGARCERVDLFY
modifications: biotinylated (Example 7)
notes: also called biotinylated BTC
B4: binds [14]; no binding (tested: 500 nM) [15].

B5: biotinylated heregulin EGF (ligand, UniProt Q02297-6 177-241, looked up)
chain: SHLVKCAEKEKTFCVNGGECFMVKDLSNPSRYLCKCPNEFTGDRCQNYVMASFYKHLGIEFMEAE
modifications: also: biotinylated, site not given here
notes: domain: heregulin EGF
B5: binds [16].

B6: Ab#14 (Fab, V domains shown)
VH: EVQLLESGGGLVQPGGSLRLSCAASGFTFSAYGMGWVRQAPGKGLEWVSYISPSGGHTKYADSVKGRFTISRDNSKNTLYLQMNSLRAEDTAVYYCAKVLETGLLVDAFDIWGQGTMVTVSS
VL: QYELTQPPSVSVYPGQTASITCSGDQLGSKFVSWYQQRPGQSPVLVMYKDKRRPSEIPERFSGSNSGNTATLTISGTQAIDEADYYCQAWDSSTYVFGTGTKVTVL
notes: also called Fab form of Ab #14; MM 121-14
B6: binds [17].
